Laboratory results: paper PMC6509336, “Wnt5a is a TLR2/4-ligand that induces tolerance in human myeloid cells” (Communications Biology, 2019)

Columns and labels:
Experiment in all cases: SPR; Biacore 3000, CM5 chip; rhTLR2, rhTLR4/MD2 and rhTLR4 amine-coupled (4.0, 4.7, 4.0 kRU); Wnt5a or Wnt3a injected at 25-100 nM for 2 min at 30 ul/min in HBS-P (10 mM HEPES, 0.15 M NaCl, 0.005% P20, pH 7.4) with ZnCl2 and CaCl2; Req from a 1:1 fit plotted against concentration and fit to a one-site hyperbola (steady-state KD)
Conditions in all cases: both partners purified
[1] = target: T1, rhTLR4 (human, UniProt O00206 24-631)
T1 construct: toll-like receptor 4, recombinant human protein from R&D Systems; No catalogue number or construct limits are printed; also called rhTLR4-his; source: bought: R&D Systems
T1 sequence (O00206 24-631): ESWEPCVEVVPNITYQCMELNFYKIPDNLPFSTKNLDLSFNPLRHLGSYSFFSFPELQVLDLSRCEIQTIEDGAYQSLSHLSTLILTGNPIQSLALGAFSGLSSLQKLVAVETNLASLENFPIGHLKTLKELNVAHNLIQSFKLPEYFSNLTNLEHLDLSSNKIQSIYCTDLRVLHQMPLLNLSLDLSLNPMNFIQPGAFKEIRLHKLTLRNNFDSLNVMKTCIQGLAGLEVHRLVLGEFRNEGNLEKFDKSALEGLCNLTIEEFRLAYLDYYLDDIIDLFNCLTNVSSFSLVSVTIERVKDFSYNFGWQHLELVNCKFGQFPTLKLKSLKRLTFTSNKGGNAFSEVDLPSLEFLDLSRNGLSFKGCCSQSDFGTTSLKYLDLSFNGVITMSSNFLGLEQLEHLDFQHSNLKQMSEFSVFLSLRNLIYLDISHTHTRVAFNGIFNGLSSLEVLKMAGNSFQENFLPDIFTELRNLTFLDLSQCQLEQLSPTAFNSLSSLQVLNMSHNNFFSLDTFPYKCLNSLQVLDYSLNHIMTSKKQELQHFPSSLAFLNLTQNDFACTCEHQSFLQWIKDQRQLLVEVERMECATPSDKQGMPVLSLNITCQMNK

[2] = target: T2, rhTLR4/MD2 (human, UniProt O00206 24-631; Q9Y6Y9 19-160)
T2 construct: toll-like receptor 4 in the recombinant human TLR4/MD2 complex from R&D Systems; MD2 (lymphocyte antigen 96) in the recombinant human TLR4/MD2 complex from R&D Systems; Bought as a preformed complex; No catalogue number, tags or construct limits are printed; source: bought: R&D Systems
T2 sequence (O00206 24-631, chain 1 of 2): as the sequence (O00206 24-631) above
T2 sequence (Q9Y6Y9 19-160, chain 2 of 2): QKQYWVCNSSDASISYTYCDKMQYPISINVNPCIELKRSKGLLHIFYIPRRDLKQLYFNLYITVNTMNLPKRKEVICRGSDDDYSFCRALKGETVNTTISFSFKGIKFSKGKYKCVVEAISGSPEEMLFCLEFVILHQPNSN

[3] = target: T3, rhTLR2 (human, UniProt O60603 21-588)
T3 construct: toll-like receptor 2, recombinant human protein from R&D Systems; No catalogue number, tags or construct limits are printed; source: bought: R&D Systems
T3 sequence (O60603 21-588): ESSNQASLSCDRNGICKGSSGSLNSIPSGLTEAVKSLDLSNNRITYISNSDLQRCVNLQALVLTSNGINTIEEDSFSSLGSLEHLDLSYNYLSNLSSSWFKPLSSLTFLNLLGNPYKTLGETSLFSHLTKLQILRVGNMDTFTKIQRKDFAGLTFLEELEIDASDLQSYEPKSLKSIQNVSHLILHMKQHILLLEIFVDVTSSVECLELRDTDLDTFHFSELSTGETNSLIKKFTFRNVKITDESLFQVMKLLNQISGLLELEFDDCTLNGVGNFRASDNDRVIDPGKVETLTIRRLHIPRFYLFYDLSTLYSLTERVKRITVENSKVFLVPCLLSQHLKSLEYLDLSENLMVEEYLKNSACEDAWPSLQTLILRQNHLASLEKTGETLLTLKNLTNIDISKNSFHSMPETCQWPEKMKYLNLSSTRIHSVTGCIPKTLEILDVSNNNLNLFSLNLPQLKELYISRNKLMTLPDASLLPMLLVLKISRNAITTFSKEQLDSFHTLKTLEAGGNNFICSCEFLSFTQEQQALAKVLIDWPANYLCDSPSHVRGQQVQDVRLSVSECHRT

B1: recombinant human/mouse (rh/m)Wnt5a (ligand, UniProt P41221 62-380, looked up)
chain: IIGAQPLCSQLAGLSQGQKKLCHLYQDHMQYIGEGAKTGIKECQYQFRHRRWNCSTVDNTSVFGRVMQIGSRETAFTYAVSAAGVVNAMSRACREGELSTCGCSRAARPKDLPRDWLWGGCGDNIDYGYRFAKEFVDARERERIHAKGSYESARILMNLHNNEAGRRTVYNLADVACKCHGVSGSCSLKTCWLQLADFRKVGDALKEKYDSAAAMRLNSRGKLVQVNSRFNSPTTQDLVYIDPSPDYCVRNESTGSLGTQGRLCNKTSEGMDGCELMCCGRGYDQFKTVQTERCHCKFHWCCYVKCKKCTEIVDQFVCK
notes: Wnt5a, recombinant human/mouse protein from R&D Systems, molecular weight 38,000; Lyophilized from PBS, EDTA and CHAPS; No catalogue number is printed; also called rWnt5a; source: bought: R&D Systems
Kd [1]: 44.5 nM | Kd [2]: 35.5 nM | Kd [3]: 26.5 nM
